Consider one substance from US20210063414A1, “METHODS FOR PREVENTING AND/OR TREATING BONE LOSS CONDITIONS BY MODULATING IRISIN” (Dana-Farber Cancer Institute, Inc., priority 2018, published 2021).

In this assay the target is T1, MLO-Y4 cell surface proteins (Mus musculus, UniProt P48997).
T1 construct: endogenous in cells; host or cells: MLO-Y4
T1 sequence (P48997 1-467): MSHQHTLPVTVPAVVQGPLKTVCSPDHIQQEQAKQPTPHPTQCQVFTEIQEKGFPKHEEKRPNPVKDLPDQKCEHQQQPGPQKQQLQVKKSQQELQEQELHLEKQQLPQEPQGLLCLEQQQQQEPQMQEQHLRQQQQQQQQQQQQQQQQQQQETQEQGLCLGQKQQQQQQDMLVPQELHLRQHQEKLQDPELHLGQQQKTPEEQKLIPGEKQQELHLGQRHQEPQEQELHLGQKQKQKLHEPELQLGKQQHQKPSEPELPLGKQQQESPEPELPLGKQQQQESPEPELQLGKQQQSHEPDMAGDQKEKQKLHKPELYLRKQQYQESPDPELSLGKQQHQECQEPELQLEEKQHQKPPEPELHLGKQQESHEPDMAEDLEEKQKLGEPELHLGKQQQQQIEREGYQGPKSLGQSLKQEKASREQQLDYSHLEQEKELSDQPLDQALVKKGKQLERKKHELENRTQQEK
Description: Crosslinking/co-immunoprecipitation/mass spectrometry (TMT quantitative proteomics) to identify irisin receptors. It counts as binding. As to conditions: co-precipitated protein Ivl (INVO_MOUSE). In short, it runs like this: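 Relative protein abundance came from 6-plex TMT MS3 quantitation on an Orbitrap Fusion Lumos, after in-gel trypsin digestion of Coomassie-stained SDS-PAGE lanes. Input was a Ni-NTA pulldown (250 mM imidazole elution) of lysates from murine MLO-Y4 cells. These cells were treated on ice with His-tagged irisin or adipsin (10 nM, 20 min) in serum-free medium, then crosslinked with 1.5 mM DTSSP for 30 min.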

Take adipsin: the TMT signal-to-noise ratio is given as 222.079.
